Values quoted from earlier work, collected in publication PMC6525395.

Molecular target: IL-6Rα (Homo sapiens) (UniProt P08887)
Sequence of UniProt P08887 (P08887 20-355): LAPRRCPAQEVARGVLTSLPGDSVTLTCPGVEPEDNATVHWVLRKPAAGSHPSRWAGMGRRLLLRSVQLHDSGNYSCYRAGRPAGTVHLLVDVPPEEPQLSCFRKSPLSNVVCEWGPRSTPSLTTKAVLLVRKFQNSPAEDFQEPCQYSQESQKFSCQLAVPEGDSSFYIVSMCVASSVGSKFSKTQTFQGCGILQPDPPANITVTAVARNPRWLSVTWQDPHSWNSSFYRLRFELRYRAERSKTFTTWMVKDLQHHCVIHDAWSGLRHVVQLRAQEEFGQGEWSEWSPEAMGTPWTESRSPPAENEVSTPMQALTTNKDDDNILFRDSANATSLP

IL-6 (from UniProt P05231)
Kd: 0.5 nM
